Literature values, collected in PMC11442857.

Target: Bovine serum albumin, fatty-acid-free (FAF-BSA) (UniProt P02769)
Test: Analytical ultracentrifugation, sedimentation equilibrium
Settings: pH 7.2, 10 °C, PBS (concentration not stated)

Sequence of UniProt P02769 (P02769 whole entry): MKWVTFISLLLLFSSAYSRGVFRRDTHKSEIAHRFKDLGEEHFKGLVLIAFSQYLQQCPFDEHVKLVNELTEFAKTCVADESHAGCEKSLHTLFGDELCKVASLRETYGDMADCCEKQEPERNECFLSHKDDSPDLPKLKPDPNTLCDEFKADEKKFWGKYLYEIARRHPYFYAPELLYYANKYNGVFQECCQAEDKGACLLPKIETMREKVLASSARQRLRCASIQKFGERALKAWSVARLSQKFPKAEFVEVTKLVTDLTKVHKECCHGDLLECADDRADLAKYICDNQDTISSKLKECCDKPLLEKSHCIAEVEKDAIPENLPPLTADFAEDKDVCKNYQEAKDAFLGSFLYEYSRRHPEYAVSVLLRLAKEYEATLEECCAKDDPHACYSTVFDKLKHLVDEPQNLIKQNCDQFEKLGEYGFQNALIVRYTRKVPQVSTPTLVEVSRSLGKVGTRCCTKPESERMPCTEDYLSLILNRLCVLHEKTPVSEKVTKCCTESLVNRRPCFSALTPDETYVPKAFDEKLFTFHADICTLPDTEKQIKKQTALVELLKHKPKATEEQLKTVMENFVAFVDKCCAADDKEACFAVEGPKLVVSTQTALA

In the case of “Bovine serum albumin, fatty-acid-free (FAF-BSA)”, the Kd dimer is given as 4.5 mM.
